The text below walks through data of US20240139329A1 (CALIFORNIA INSTITUTE OF TECHNOLOGY, published 2024).

The target in assay [1] is T1, Mouse SCA1 (LY6A), on cells (mouse, UniProt P05533 27-112).
T1 construct: whole, on cells; also called mouse LY6A
T1 sequence: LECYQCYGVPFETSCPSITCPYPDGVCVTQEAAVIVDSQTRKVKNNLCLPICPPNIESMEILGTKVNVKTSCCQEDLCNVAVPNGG
Kind of assay: cell microarray screen hit (membrane).
Description: After these controls, the six-capsid pool was tested in a full screen of approximately 6400 proteins, including 6000 human plasma membrane proteins and secreted and cell surface-tethered proteins, as well as approximately 400 heterodimers. […] To assign these hits to specific capsids, follow-up deconvolution screens were performed with each individual capsid from the pool (FIG. 12E). DNA oligos for the 22 identified hits, as well as the positive control CD86, were affixed in duplicate locations to new slides. A negative control condition with no AAV analyte and a positive control condition with CTLA4-Fc (CD86 binder) were also included.

The target in assay [2] is T2, human interleukin 3 (IL3), expressed on microarray cells (human, UniProt P08700 20-152).
T2 construct: also called hIL3
T2 sequence: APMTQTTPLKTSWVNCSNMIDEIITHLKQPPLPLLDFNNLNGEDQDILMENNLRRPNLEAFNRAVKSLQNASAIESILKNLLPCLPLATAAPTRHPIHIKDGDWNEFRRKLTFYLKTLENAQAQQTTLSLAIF
Nature of the assay: cell microarray screen hit (title of Table 4).

Assay [3] deals with T1, Mouse SCA1 (LY6A), on cells. Nature of the assay: cell microarray, individual capsids, anti-AAV9 detection.
Description: To enable higher-throughput screening, the six capsids were tested as a pool. Pooled testing required additional dosage optimizing, first for the individual and then for the collective background binding levels of the included capsids (Table 5).
For assay [4], the target named is T3, mouse LRP6-E1E2 (N-half, AA 20-628) tagged with Fc (mouse IgG2a) (mouse, UniProt O88572 20-628).
T3 construct: not shown: mouse IgG2a Fc
T3 sequence: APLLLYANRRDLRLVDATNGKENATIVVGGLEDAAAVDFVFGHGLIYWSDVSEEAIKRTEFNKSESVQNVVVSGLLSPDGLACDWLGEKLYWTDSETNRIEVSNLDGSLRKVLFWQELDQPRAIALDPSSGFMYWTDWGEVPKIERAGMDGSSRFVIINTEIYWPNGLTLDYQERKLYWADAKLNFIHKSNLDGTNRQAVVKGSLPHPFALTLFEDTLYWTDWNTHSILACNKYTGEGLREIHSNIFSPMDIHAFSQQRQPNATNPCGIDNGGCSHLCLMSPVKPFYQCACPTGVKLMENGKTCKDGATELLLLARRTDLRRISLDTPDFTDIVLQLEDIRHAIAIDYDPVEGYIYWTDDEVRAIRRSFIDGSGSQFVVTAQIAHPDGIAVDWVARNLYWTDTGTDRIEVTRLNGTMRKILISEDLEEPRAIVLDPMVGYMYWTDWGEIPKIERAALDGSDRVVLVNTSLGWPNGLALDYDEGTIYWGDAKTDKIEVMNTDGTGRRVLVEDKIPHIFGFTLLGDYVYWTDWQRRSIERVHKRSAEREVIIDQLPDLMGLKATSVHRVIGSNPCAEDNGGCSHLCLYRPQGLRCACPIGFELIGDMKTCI
Kind of assay: SPR, target-Fc captured on protein A chip, AAV analyte (FIG. 20B). A general note: In SPR one partner is held on a chip, and binding of the other changes the refractive index at the surface.

In assay [5] the target is T4, mouse LRP6-E3E4 (C-half, AA 629-1244) tagged with Fc (mouse IgG2a) (mouse, UniProt O88572 629-1244).
T4 construct: not shown: mouse IgG2a Fc
T4 sequence: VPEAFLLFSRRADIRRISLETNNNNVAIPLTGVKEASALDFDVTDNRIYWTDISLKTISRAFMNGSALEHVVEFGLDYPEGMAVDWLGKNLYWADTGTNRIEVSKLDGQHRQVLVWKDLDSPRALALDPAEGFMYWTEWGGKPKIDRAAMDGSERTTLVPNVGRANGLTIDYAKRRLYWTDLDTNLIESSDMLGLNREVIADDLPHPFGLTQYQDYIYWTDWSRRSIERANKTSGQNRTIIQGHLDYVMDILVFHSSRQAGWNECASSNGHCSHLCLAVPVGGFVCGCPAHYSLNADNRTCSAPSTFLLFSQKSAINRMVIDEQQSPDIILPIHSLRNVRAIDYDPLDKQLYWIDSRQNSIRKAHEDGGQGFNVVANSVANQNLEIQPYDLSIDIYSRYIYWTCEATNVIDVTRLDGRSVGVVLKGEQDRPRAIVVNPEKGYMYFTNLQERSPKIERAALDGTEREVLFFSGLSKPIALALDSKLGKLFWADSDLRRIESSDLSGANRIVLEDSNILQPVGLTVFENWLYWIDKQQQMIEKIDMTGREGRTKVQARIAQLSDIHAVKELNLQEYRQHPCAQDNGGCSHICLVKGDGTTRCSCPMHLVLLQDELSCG
The assay is described as above.

Numbering of substitutions follows the chain as printed.

B1: AAV.CAP-B22 (other)
chain: MAADGYLPDWLEDNLSEGIREWWALKPGAPQPKANQQHQDNARGLVLPGYKYLGPGNGLDKGEPVNAADAAALEHDKAYDQQLKAGDNPYLKYNHADAEFQERLKEDTSFGGNLGRAVFQAKKRLLEPLGLVEEAAKTAPGKKRPVEQSPQEPDSSAGIGKSGAQPAKKRLNFGQTGDTESVPDPQPIGEPPAAPSGVGSLTMASGGGAPVADNNEGADGVGSSSGNWHCDSQWLGDRVITTSTRTWALPTYNNHLYKQISNSTSGGSSNDNAYFGYSTPWGYFDFNRFHCHFSPRDWQRLINNNWGFRPKRLNFKLFNIQVKEVTDNNGVKTIANNLTSTVQVFTDSDYQLPYVLGSAHEGCLPPFPADVFMIPQYGYLTLNDGSQAVGRSSFYCLEYFPSQMLRTGNNFQFSYEFENVPFHSSYAHSQSLDRLMNPLIDQYLYYLSRTIDGQSSKSQTLKFSVAGPSNMAVQGRNYIPGPSYRQQRVSTTVTQNNNSEFAWPGASSWALNGRNSLMNPGPAMASHKEGEDRFFPLSGSLIFGKQGTGRDNVDADKVMITNEEEIKTTNPVATESYGQVATNHQSDGTLAVPFKAQAQTGWVQNQGILPGMVWQDRDVYLQGPIWAKIPHTDGNFHPSPLMGGFGMKHPPPQILIKNTPVPADPPTAFNKDKLNSFITQYSTGQVSVEIEWELQKENSKRWNPEIQYTSNYYKSNNVEFAVNTEGVYSEPRPIGTRYLTRNL
notes: also called AAV9.CAP-B22
As for B1, the binding result in assay [1] and in assay [2] was “binds” throughout.

B2: AAV-MaCPNS1 (other)
chain: MAADGYLPDWLEDNLSEGIREWWALKPGAPQPKANQQHQDNARGLVLPGYKYLGPGNGLDKGEPVNAADAAALEHDKAYDQQLKAGDNPYLKYNHADAEFQERLKEDTSFGGNLGRAVFQAKKRLLEPLGLVEEAAKTAPGKKRPVEQSPQEPDSSAGIGKSGAQPAKKRLNFGQTGDTESVPDPQPIGEPPAAPSGVGSLTMASGGGAPVADNNEGADGVGSSSGNWHCDSQWLGDRVITTSTRTWALPTYNNHLYKQISNSTSGGSSNDNAYFGYSTPWGYFDFNRFHCHFSPRDWQRLINNNWGFRPKRLNFKLFNIQVKEVTDNNGVKTIANNLTSTVQVFTDSDYQLPYVLGSAHEGCLPPFPADVFMIPQYGYLTLNDGSQAVGRSSFYCLEYFPSQMLRTGNNFQFSYEFENVPFHSSYAHSQSLDRLMNPLIDQYLYYLSRTINGSGQNQQTLKFSVAGPSNMAVQGRNYIPGPSYRQQRVSTTVTQNNNSEFAWPGASSWALNGRNSLMNPGPAMASHKEGEDRFFPLSGSLIFGKQGTGRDNVDADKVMITNEEEIKTTNPVATESYGQVATNHQSAQPHEGSSRAQAQTGWVQNQGILPGMVWQDRDVYLQGPIWAKIPHTDGNFHPSPLMGGFGMKHPPPQILIKNTPVPADPPTAFNKDKLNSFITQYSTGQVSVEIEWELQKENSKRWNPEIQYTSNYYKSNNVEFAVNTEGVYSEPRPIGTRYLTRNL
On to B2, for which the binding result in assay [2] is given as “binds”; in assay [3], “no binding”.

B3: AAV-BI30 (other)
chain: B2 chain with P589N, H590N, E591S, G592T, S593R, S594G, R595G
Consider B3, for which the binding result was “binds” in assay [4] and “no binding” in assay [5].

B4: AAV-MaCPNS2 (other)
chain: B2 chain with H590N, E591A, G592S, S593V, S594N, R595S
notes: also called AAV-MacCPNS2
B4: the binding result is “binds” in assay [2] and “no binding” in assay [3].
